Measured values from the supplement of paper PMC10567573.

B1: SEPHS2 (parent)
chain: KASGRFGLLQGTSAETSGGLLICL
B2: NR2F2 (parent)
chain: VAHVESLQEKSQCALEEYVRSQYP

Variants of: B1
Experiment: protein stability index of a GFP-peptide fusion (GPS, HEK-293T) (PSI 1-6); higher = more stable
Details: c terminus: a fixed tail appended
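Also: lentivirally expressed fusions sorted by FACS into six bins by GFP to DsRed ratio, PSI derived from sequencing read proportions per bin multiplied by bin number.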

| Variant | protein stability index |
| --- | --- |
| KASGRFGMLQGTSAETSGGLLICL | 2.26 |
| KASGRFGALQGTSAETSGGLLICL | 2.02 |
| KASGRFGLLQGTSAETSGGLLICE | 3.13 |
| KASGRFGLLQGTSAETSGGLLICS | 1.9 |
| KASGRFGLLQGTSAETSGGLLICR | 2.55 |
| KASGRFGLLQGTSAETSGGLLICA | 1.24 |
| KASGRFGLLQGTSAETSGGLLICF | 4.05 |
| KAHGRFGLLQGTSAETSGGLLICL | 4.72 |
| KAMGRFGLLQGTSAETSGGLLICL | 1.51 |
| KAAGRFGLLQGTSAETSGGLLICL | 1.55 |
| KATGRFGLLQGTSAETSGGLLICL | 3.36 |
| KASGRFGLLQGTSNETSGGLLICL | 2.93 |
| KASGRFGLLQGTSQETSGGLLICL | 3.85 |
| KASGRFGLLQGTSAETSGGHLICL | 2.07 |
| KASGRFGLLQGTSAETSGGQLICL | 2.58 |
| KASGRFGLLQGTSAETSGGALICL | 2.87 |
| KASGRFGLLQGTSAETSGGKLICL | 1.95 |
| KWSGRFGLLQGTSAETSGGLLICL | 2.41 |
| KVSGRFGLLQGTSAETSGGLLICL | 3.69 |
| KASGRFGLLQGTSAEFSGGLLICL | 3.47 |

| Variant | protein stability index |
| --- | --- |
| KASGRFGLLQGTSAETSGGLEICL | 1.38 |
| KASGRFGLLQGTSAETSGGLVICL | 2.08 |
| KASGRFGLLQGTSAETSGGLGICL | 1.53 |
| KASGRFGLLQGTSAETSGGLHICL | 2.21 |
| KASGRFGLLQGTSAETSGGLQICL | 2.08 |
| KASGRFGLLQGTSAETSGGLRICL | 1.57 |
| KASGRYGLLQGTSAETSGGLLICL | 1.75 |
| KASGRMGLLQGTSAETSGGLLICL | 2.44 |
| KASGKFGLLQGTSAETSGGLLICL | 2.97 |
| KASGRFLLLQGTSAETSGGLLICL | 3.5 |
| KASGRFKLLQGTSAETSGGLLICL | 3.27 |
| KASGRFALLQGTSAETSGGLLICL | 3.63 |
| KASGRFILLQGTSAETSGGLLICL | 2.32 |
| KASGRFGLLQGTSAETSCGLLICL | 3.15 |
| KASGRFGLLEGTSAETSGGLLICL | 2.2 |
| KASGRFGLLSGTSAETSGGLLICL | 1.71 |
| KASGRFGLLIGTSAETSGGLLICL | 3.54 |
| KASGRFGLLMGTSAETSGGLLICL | 3.87 |
| KASGRFGLLQGFSAETSGGLLICL | 3.31 |
| KASGRFGLLQGTSAETSGGLLIAL | 1.93 |

| Variant | protein stability index |
| --- | --- |
| KASGRFGLLQGTSAETSGGLLIPL | 2.02 |
| KASGRFGLLQGTSAETSGGLLIML | 1.49 |
| KASGRFGLLQGTSAETSGGLLIFL | 3.71 |
| NASGRFGLLQGTSAETSGGLLICL | 1.95 |
| CASGRFGLLQGTSAETSGGLLICL | 2.13 |
| WASGRFGLLQGTSAETSGGLLICL | 2.52 |
| EASGRFGLLQGTSAETSGGLLICL | 2.6 |
| KASGRFGLLQGTMAETSGGLLICL | 2.24 |
| KASGRFGLLQGTDAETSGGLLICL | 2.01 |
| KASGRFGLLQTTSAETSGGLLICL | 4.7 |
| KASGRFGLLQRTSAETSGGLLICL | 3.92 |
| KASGRFGLLQGTSAETSGGLLGCL | 2.47 |
| KASGRFGLLQGTSAETSGGLLSCL | 2.83 |
| KASERFGLLQGTSAETSGGLLICL | 3.09 |
| KASQRFGLLQGTSAETSGGLLICL | 2.76 |
| KASGRFGLLQGTSAETSGQLLICL | 2.1 |
| KASGRFGLLQGTSAETSGHLLICL | 1.74 |
| KASGRFGLRQGTSAETSGGLLICL | 2.98 |
| KASGRFGLEQGTSAETSGGLLICL | 2.76 |
| KASGRFGLVQGTSAETSGGLLICL | 1.74 |

Variants of: B2
Experiment: as above
Details: c terminus: a fixed tail appended

| Variant | protein stability index |
| --- | --- |
| VCHVESLQEKSQCALEEYVRSQYP | 2.54 |
| VPHVESLQEKSQCALEEYVRSQYP | 3.76 |
| VKHVESLQEKSQCALEEYVRSQYP | 3.48 |
| VEHVESLQEKSQCALEEYVRSQYP | 4.27 |
| VVHVESLQEKSQCALEEYVRSQYP | 3.27 |
| VDHVESLQEKSQCALEEYVRSQYP | 3.85 |
| VMHVESLQEKSQCALEEYVRSQYP | 3.03 |
| VYHVESLQEKSQCALEEYVRSQYP | 3.25 |
| VHHVESLQEKSQCALEEYVRSQYP | 2.98 |
| VQHVESLQEKSQCALEEYVRSQYP | 3.33 |
| VSHVESLQEKSQCALEEYVRSQYP | 3.87 |
| VLHVESLQEKSQCALEEYVRSQYP | 2.85 |
| VNHVESLQEKSQCALEEYVRSQYP | 3.1 |
| VIHVESLQEKSQCALEEYVRSQYP | 2.56 |
| VTHVESLQEKSQCALEEYVRSQYP | 3.73 |
| VRHVESLQEKSQCALEEYVRSQYP | 3.55 |
| VGHVESLQEKSQCALEEYVRSQYP | 3.53 |
| VWHVESLQEKSQCALEEYVRSQYP | 2.29 |
| VFHVESLQEKSQCALEEYVRSQYP | 2.59 |
| VAHVDSLQEKSQCALEEYVRSQYP | 3.18 |
| VAHVISLQEKSQCALEEYVRSQYP | 2.41 |
| VAHVWSLQEKSQCALEEYVRSQYP | 2.14 |
| VAHVGSLQEKSQCALEEYVRSQYP | 2.9 |
| VAHVYSLQEKSQCALEEYVRSQYP | 2.13 |
| VAHVSSLQEKSQCALEEYVRSQYP | 2.53 |
| VAHVMSLQEKSQCALEEYVRSQYP | 2.69 |

| Variant | protein stability index |
| --- | --- |
| VAHVFSLQEKSQCALEEYVRSQYP | 1.92 |
| VAHVLSLQEKSQCALEEYVRSQYP | 2.37 |
| VAHVPSLQEKSQCALEEYVRSQYP | 3.04 |
| VAHVCSLQEKSQCALEEYVRSQYP | 1.97 |
| VAHVRSLQEKSQCALEEYVRSQYP | 2.63 |
| VAHVASLQEKSQCALEEYVRSQYP | 3.27 |
| VAHVHSLQEKSQCALEEYVRSQYP | 3.02 |
| VAHVVSLQEKSQCALEEYVRSQYP | 2.48 |
| VAHVKSLQEKSQCALEEYVRSQYP | 2.96 |
| VAHVNSLQEKSQCALEEYVRSQYP | 3.38 |
| VAHVTSLQEKSQCALEEYVRSQYP | 2.93 |
| VAHVQSLQEKSQCALEEYVRSQYP | 3.52 |
| VAHVESPQEKSQCALEEYVRSQYP | 4.43 |
| VAHVESDQEKSQCALEEYVRSQYP | 4.29 |
| VAHVESAQEKSQCALEEYVRSQYP | 3.92 |
| VAHVESGQEKSQCALEEYVRSQYP | 3.55 |
| VAHVESCQEKSQCALEEYVRSQYP | 3.81 |
| VAHVESFQEKSQCALEEYVRSQYP | 3.27 |
| VAHVESQQEKSQCALEEYVRSQYP | 4.08 |
| VAHVESIQEKSQCALEEYVRSQYP | 3.82 |
| VAHVESMQEKSQCALEEYVRSQYP | 3.95 |
| VAHVESNQEKSQCALEEYVRSQYP | 4.68 |
| VAHVESEQEKSQCALEEYVRSQYP | 4.77 |
| VAHVESHQEKSQCALEEYVRSQYP | 3.71 |
| VAHVESKQEKSQCALEEYVRSQYP | 3.98 |
| VAHVESRQEKSQCALEEYVRSQYP | 3.89 |

| Variant | protein stability index |
| --- | --- |
| VAHVERLQEKSQCALEEYVRSQYP | 3.67 |
| VAHVEALQEKSQCALEEYVRSQYP | 4.04 |
| VAHVEFLQEKSQCALEEYVRSQYP | 2.71 |
| VAHVENLQEKSQCALEEYVRSQYP | 3.53 |
| VAHVEVLQEKSQCALEEYVRSQYP | 3.33 |
| VAHVEELQEKSQCALEEYVRSQYP | 4.33 |
| VAHVEGLQEKSQCALEEYVRSQYP | 3.24 |
| VAHVEHLQEKSQCALEEYVRSQYP | 3.26 |
| VAHVEQLQEKSQCALEEYVRSQYP | 3.69 |
| VAHVEPLQEKSQCALEEYVRSQYP | 2.94 |
| VAHVELLQEKSQCALEEYVRSQYP | 3.22 |
| VAHVEWLQEKSQCALEEYVRSQYP | 2.77 |
| VAHVEYLQEKSQCALEEYVRSQYP | 2.98 |
| VAHVEMLQEKSQCALEEYVRSQYP | 3.07 |
| VAHVETLQEKSQCALEEYVRSQYP | 3.55 |
| VAHVEILQEKSQCALEEYVRSQYP | 3.07 |
| VAHVECLQEKSQCALEEYVRSQYP | 3.48 |
| VAHVEDLQEKSQCALEEYVRSQYP | 3.86 |
| VAHVEKLQEKSQCALEEYVRSQYP | 4.12 |
| VAKVESLQEKSQCALEEYVRSQYP | 3.43 |
| VAMVESLQEKSQCALEEYVRSQYP | 3.36 |
| VADVESLQEKSQCALEEYVRSQYP | 4.6 |
| VACVESLQEKSQCALEEYVRSQYP | 3.42 |
| VALVESLQEKSQCALEEYVRSQYP | 2.38 |
| VATVESLQEKSQCALEEYVRSQYP | 3.86 |
| VAVVESLQEKSQCALEEYVRSQYP | 2.83 |

| Variant | protein stability index |
| --- | --- |
| VAYVESLQEKSQCALEEYVRSQYP | 2.77 |
| VAFVESLQEKSQCALEEYVRSQYP | 2.63 |
| VAEVESLQEKSQCALEEYVRSQYP | 4.95 |
| VAQVESLQEKSQCALEEYVRSQYP | 3.81 |
| VANVESLQEKSQCALEEYVRSQYP | 3.77 |
| VASVESLQEKSQCALEEYVRSQYP | 3.68 |
| VARVESLQEKSQCALEEYVRSQYP | 3.45 |
| VAAVESLQEKSQCALEEYVRSQYP | 3.48 |
| VAWVESLQEKSQCALEEYVRSQYP | 2.26 |
| VAGVESLQEKSQCALEEYVRSQYP | 3.75 |
| VAIVESLQEKSQCALEEYVRSQYP | 2.55 |
| VAPVESLQEKSQCALEEYVRSQYP | 4.09 |
| FAHVESLQEKSQCALEEYVRSQYP | 3.03 |
| YAHVESLQEKSQCALEEYVRSQYP | 3.39 |
| KAHVESLQEKSQCALEEYVRSQYP | 3.66 |
| AAHVESLQEKSQCALEEYVRSQYP | 3.29 |
| CAHVESLQEKSQCALEEYVRSQYP | 2.66 |
| HAHVESLQEKSQCALEEYVRSQYP | 3.55 |
| PAHVESLQEKSQCALEEYVRSQYP | 4.13 |
| RAHVESLQEKSQCALEEYVRSQYP | 3.39 |
| QAHVESLQEKSQCALEEYVRSQYP | 3.89 |
| WAHVESLQEKSQCALEEYVRSQYP | 3.12 |
| NAHVESLQEKSQCALEEYVRSQYP | 4.01 |
| SAHVESLQEKSQCALEEYVRSQYP | 3.53 |
| IAHVESLQEKSQCALEEYVRSQYP | 3.52 |
| TAHVESLQEKSQCALEEYVRSQYP | 4.19 |

| Variant | protein stability index |
| --- | --- |
| DAHVESLQEKSQCALEEYVRSQYP | 4.15 |
| MAHVESLQEKSQCALEEYVRSQYP | 3.89 |
| EAHVESLQEKSQCALEEYVRSQYP | 4.24 |
| LAHVESLQEKSQCALEEYVRSQYP | 3.5 |
| GAHVESLQEKSQCALEEYVRSQYP | 3.79 |
| VAHKESLQEKSQCALEEYVRSQYP | 3.79 |
| VAHGESLQEKSQCALEEYVRSQYP | 3.94 |
| VAHMESLQEKSQCALEEYVRSQYP | 3.24 |
| VAHNESLQEKSQCALEEYVRSQYP | 4.12 |
| VAHRESLQEKSQCALEEYVRSQYP | 4.06 |
| VAHLESLQEKSQCALEEYVRSQYP | 3.08 |
| VAHCESLQEKSQCALEEYVRSQYP | 3.81 |
| VAHSESLQEKSQCALEEYVRSQYP | 4.11 |
| VAHEESLQEKSQCALEEYVRSQYP | 4.37 |
| VAHTESLQEKSQCALEEYVRSQYP | 3.59 |
| VAHFESLQEKSQCALEEYVRSQYP | 2.85 |
| VAHWESLQEKSQCALEEYVRSQYP | 3.28 |
| VAHYESLQEKSQCALEEYVRSQYP | 2.59 |
| VAHDESLQEKSQCALEEYVRSQYP | 4.06 |
| VAHQESLQEKSQCALEEYVRSQYP | 4.03 |
| VAHHESLQEKSQCALEEYVRSQYP | 4.06 |
| VAHPESLQEKSQCALEEYVRSQYP | 3.54 |
| VAHAESLQEKSQCALEEYVRSQYP | 4.11 |
| VAHIESLQEKSQCALEEYVRSQYP | 3.45 |
